Experimental data taken from IntAct's records for PubMed 24105263.

B1: Vesicle-associated membrane protein-associated protein A (Homo sapiens), Q9P0L0 (parent)
chain: MASASGAMAKHEQILVLDPPTDLKFKGPFTDVVTTNLKLRNPSDRKVCFKVKTTAPRRYCVRPNSGIIDPGSTVTVSVMLQPFDYDPNEKSKHKFMVQTIFAPPNTSDMEAVWKEAKPDELMDSKLRCVFEMPNENDKLNDMEPSKAVPLNASKQDGPMPKPHSVSLNDTETRKLMEECKRLQGEMMKLSEENRHLRDEGLRLRKVAHSDKPGSTSTASFRDNVTSPLPSLLVVIAAIFIGFFLGKFIL
partner: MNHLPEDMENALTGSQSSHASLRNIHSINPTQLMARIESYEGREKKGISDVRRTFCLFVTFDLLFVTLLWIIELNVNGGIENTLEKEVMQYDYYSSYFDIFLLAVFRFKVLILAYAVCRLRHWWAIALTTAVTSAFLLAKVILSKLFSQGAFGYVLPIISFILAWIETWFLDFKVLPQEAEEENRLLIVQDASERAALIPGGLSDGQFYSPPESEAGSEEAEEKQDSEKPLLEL
B2: Vesicle-associated membrane protein-associated protein A (Homo sapiens), Q9P0L0 (parent)
chain: B1 chain
partner: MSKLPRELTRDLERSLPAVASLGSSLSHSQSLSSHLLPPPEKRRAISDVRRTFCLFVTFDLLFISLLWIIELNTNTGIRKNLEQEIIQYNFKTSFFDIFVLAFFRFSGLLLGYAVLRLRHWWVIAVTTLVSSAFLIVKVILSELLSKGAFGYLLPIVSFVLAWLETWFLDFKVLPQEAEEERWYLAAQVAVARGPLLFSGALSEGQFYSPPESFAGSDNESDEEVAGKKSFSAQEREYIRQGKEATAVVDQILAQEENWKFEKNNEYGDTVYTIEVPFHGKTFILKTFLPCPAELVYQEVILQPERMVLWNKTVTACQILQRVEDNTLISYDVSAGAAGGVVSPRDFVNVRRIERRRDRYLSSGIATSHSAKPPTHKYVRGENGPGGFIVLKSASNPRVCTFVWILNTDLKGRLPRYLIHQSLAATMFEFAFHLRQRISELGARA

Variants of: B1
Settings: with STARD3NL

Variant | effect of a mutation on the interaction
K94D;M96D | decreasing interaction strength

Variants of: B2
Settings: with STARD3, Q14849-1

Variant | effect of a mutation on the interaction
K94D;M96D | decreasing interaction strength
